Measurements from the supplement of paper PMC9112550, “Optimization of the antimicrobial peptide Bac7 by deep mutational scanning” (BMC Biology, 2022).

Each sequence was assayed on Escherichia coli TOP10 (assay: shrunken log2 fold change of peptide-encoding DNA abundance (4.5 h post-induction vs induction); higher = less antimicrobial activity (less host growth inhibition)). Conditions: time post-induction: 4.5 h; library: site-saturation at positions 5, 18, 19, 20.
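Further: peptides expressed intracellularly from a pBAD plasmid library in pooled LB shake-flask culture, induced with 0.3% L-arabinose, DNA abundance read by NGS, three biological replicates, DESeq2 with apeglm shrinkage.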

Sequence | shrunken log2 fold change
RRIRYRPPRLPRPRPRPLIYPRP | -1.24
RRIRFRPPRLPRPRPRPTICPRP | -0.288
RRIRHRPPRLPRPRPRPPIMPRP | -0.285
RRIRSRPPRLPRPRPRPYPGPRP | -0.199
RRIRLRPPRLPRPRPRPIWPPRP | 0.356
RRIRLRPPRLPRPRPRPKGHPRP | -0.0999
RRIRNRPPRLPRPRPRPNQIPRP | -0.319
RRIRSRPPRLPRPRPRPNHRPRP | -0.426
RRIRMRPPRLPRPRPRPEEWPRP | 0.00599
RRIRRRPPRLPRPRPRPGMQPRP | 0.245
RRIRLRPPRLPRPRPRPNDKPRP | -0.962
RRIRRRPPRLPRPRPRPSRGPRP | 0.432
RRIRWRPPRLPRPRPRPDDIPRP | -0.163
RRIRHRPPRLPRPRPRPCDDPRP | -0.0661
RRIRYRPPRLPRPRPRPQLNPRP | -1.15
RRIRNRPPRLPRPRPRPQSGPRP | 0.0495
RRIRLRPPRLPRPRPRPFTFPRP | 0.0545
RRIRHRPPRLPRPRPRPQYIPRP | -0.621
RRIRFRPPRLPRPRPRPRDPPRP | 0.553
RRIRRRPPRLPRPRPRPVLEPRP | 0.599
RRIRFRPPRLPRPRPRPIGYPRP | -0.363
RRIRTRPPRLPRPRPRPELWPRP | -0.142

Sequence | shrunken log2 fold change
RRIRWRPPRLPRPRPRPWVCPRP | 0.186
RRIRNRPPRLPRPRPRPFVNPRP | -0.0775
RRIRDRPPRLPRPRPRPVELPRP | -0.0194
RRIRWRPPRLPRPRPRPFKKPRP | 0.149
RRIRERPPRLPRPRPRPRTIPRP | -0.337
RRIRLRPPRLPRPRPRPHLGPRP | -0.105
RRIRRRPPRLPRPRPRPEVTPRP | 0.0976
RRIRIRPPRLPRPRPRPGMMPRP | -0.453
RRIRVRPPRLPRPRPRPCMGPRP | -0.234
RRIRRRPPRLPRPRPRPYVKPRP | -0.166
RRIRCRPPRLPRPRPRPYVNPRP | -1.3
RRIRVRPPRLPRPRPRPKMVPRP | -0.109
RRIRIRPPRLPRPRPRPVYLPRP | -0.0309
RRIRWRPPRLPRPRPRPLCMPRP | -0.177
RRIRMRPPRLPRPRPRPIYFPRP | -0.141
RRIRFRPPRLPRPRPRPKLCPRP | -0.14
RRIRWRPPRLPRPRPRPRTRPRP | 0.755
RRIRFRPPRLPRPRPRPIYQPRP | -0.21
RRIRNRPPRLPRPRPRPMRMPRP | -0.00372
RRIRGRPPRLPRPRPRPPGKPRP | 0.807
RRIRFRPPRLPRPRPRPVFFPRP | 0.00921
RRIRSRPPRLPRPRPRPKITPRP | -0.325

Sequence | shrunken log2 fold change
RRIRERPPRLPRPRPRPGRCPRP | 0.0675
RRIRTRPPRLPRPRPRPLKNPRP | -0.397
RRIRNRPPRLPRPRPRPAMMPRP | 0.0394
RRIRKRPPRLPRPRPRPRTHPRP | 0.425
RRIRSRPPRLPRPRPRPMEAPRP | -0.00776
RRIRMRPPRLPRPRPRPKGMPRP | 1.37
RRIRGRPPRLPRPRPRPEAVPRP | 2.27
RRIRPRPPRLPRPRPRPDIMPRP | -0.0454
RRIRYRPPRLPRPRPRPSCIPRP | -0.118
RRIRWRPPRLPRPRPRPPCLPRP | 0.186
RRIRARPPRLPRPRPRPWYFPRP | -0.332
RRIRWRPPRLPRPRPRPHFMPRP | -0.398
RRIRNRPPRLPRPRPRPDSVPRP | 0.119
RRIRNRPPRLPRPRPRPPNTPRP | -0.0466
RRIRMRPPRLPRPRPRPIYQPRP | -0.236
RRIRVRPPRLPRPRPRPGTKPRP | 0.193
RRIRLRPPRLPRPRPRPNTNPRP | -0.576
RRIRERPPRLPRPRPRPYQPPRP | 0.0223
RRIRFRPPRLPRPRPRPVSYPRP | 0.0168
RRIRHRPPRLPRPRPRPQLQPRP | 0.0457
RRIRSRPPRLPRPRPRPSEFPRP | -0.306
RRIRPRPPRLPRPRPRPKLAPRP | 0.405

Sequence | shrunken log2 fold change
RRIRSRPPRLPRPRPRPHYRPRP | 0.0349
RRIRFRPPRLPRPRPRPFGSPRP | -0.00247
RRIRERPPRLPRPRPRPTENPRP | -0.0185
RRIRERPPRLPRPRPRPHWGPRP | 0.0212
RRIRWRPPRLPRPRPRPPHWPRP | 0.592
RRIRLRPPRLPRPRPRPNQYPRP | -0.126
RRIRQRPPRLPRPRPRPTYWPRP | -0.247
RRIRVRPPRLPRPRPRPRMCPRP | -0.35
RRIRFRPPRLPRPRPRPPTDPRP | 0.414
RRIRIRPPRLPRPRPRPQESPRP | -0.617
RRIRQRPPRLPRPRPRPMFVPRP | 0.493
RRIRQRPPRLPRPRPRPRGLPRP | 0.00877
RRIRFRPPRLPRPRPRPMISPRP | -0.446
RRIRNRPPRLPRPRPRPLEMPRP | -0.0434
RRIRARPPRLPRPRPRPGKSPRP | 0.294
RRIRERPPRLPRPRPRPVATPRP | 0.124
RRIRFRPPRLPRPRPRPITDPRP | 0.0437
RRIRFRPPRLPRPRPRPSSIPRP | -0.945
RRIRVRPPRLPRPRPRPYQQPRP | -0.323
RRIRPRPPRLPRPRPRPLIVPRP | -0.406
RRIRKRPPRLPRPRPRPKAQPRP | 0.313
RRIRVRPPRLPRPRPRPVDRPRP | 0.257

Sequence | shrunken log2 fold change
RRIRLRPPRLPRPRPRPYTQPRP | -0.845
RRIRKRPPRLPRPRPRPIAHPRP | 0.143
RRIRFRPPRLPRPRPRPVMRPRP | 0.518
RRIRRRPPRLPRPRPRPLLCPRP | 0.35
RRIRHRPPRLPRPRPRPAILPRP | -0.171
RRIRNRPPRLPRPRPRPEIRPRP | 0.126
RRIRFRPPRLPRPRPRPLDDPRP | -0.209
RRIRIRPPRLPRPRPRPQMAPRP | -0.064
RRIRGRPPRLPRPRPRPSKEPRP | 0.289
RRIRARPPRLPRPRPRPVCTPRP | 0.434
RRIRLRPPRLPRPRPRPPTAPRP | 0.228
RRIRARPPRLPRPRPRPIWVPRP | 0.226
RRIRARPPRLPRPRPRPTQEPRP | 0.0329
RRIRGRPPRLPRPRPRPPVDPRP | 0.953
RRIRDRPPRLPRPRPRPLFFPRP | 0.648
RRIRKRPPRLPRPRPRPTTMPRP | 0.171
RRIRQRPPRLPRPRPRPMVQPRP | -0.00171
RRIRERPPRLPRPRPRPSCVPRP | -0.356
RRIRARPPRLPRPRPRPSDDPRP | 0.282
RRIRVRPPRLPRPRPRPSEQPRP | -0.0241
RRIRERPPRLPRPRPRPIHHPRP | -0.7
